Data published in the supplement of paper PMC11246515.
± gives the standard deviation of the averaged measurements.

Experiment: total protein half-life in vivo (active degradation + dilution); higher = more stable protein
[1] = E. coli NCM3722 delta-clpP delta-lon delta-hslV, growth: N-lim chemostat, doubling time 6 h
[2] = E. coli NCM3722 delta-hslV, growth: N-lim chemostat, doubling time 6 h
[3] = E. coli NCM3722 delta-lon, growth: N-lim chemostat, doubling time 6 h
[4] = E. coli NCM3722 delta-smpB, growth: N-lim chemostat, doubling time 6 h
[5] = wild type E. coli NCM3722, growth: C-lim chemostat, doubling time 3 h
[6] = wild type E. coli NCM3722, growth: C-lim chemostat, doubling time 6 h
[7] = wild type E. coli NCM3722, growth: C-lim chemostat, doubling time 12 h
[8] = wild type E. coli NCM3722, growth: N-lim chemostat, doubling time 6 h
[9] = wild type E. coli NCM3722, growth: N-lim chemostat, doubling time 12 h
[10] = wild type E. coli NCM3722, growth: P-lim chemostat, doubling time 6 h
[11] = wild type E. coli NCM3722, growth: P-lim chemostat, doubling time 12 h
[12] = E. coli NCM3722 delta-clpP, growth: N-lim chemostat, doubling time 6 h

## MTIKLIVGLANPGAEYAATRHNAGAWFVDLLAERLRAPLREEAKFFGYTSRVTLGGEDVRLLVPTTFMNLSGKAVAAMASFFRINPDEILVAHDELDLPPGVAKFKLGGGHGGHNGLKDIISKLGNNPNFHRLRIGIGHPGDKNKVVGFVLGKPPVSEQKLIDEAIDEAARCTEMWFTDGLTKATNRLHAFKAQ [P0A7D1]
[1]
  total protein half-life in vivo: 5.126 ± 0.023 h
[2]
  total protein half-life in vivo: 4.76 ± 0.084 h
[3]
  total protein half-life in vivo: 5.04 ± 0.51 h
[4]
  total protein half-life in vivo: 4.54 ± 0.08 h
[5]
  total protein half-life in vivo: 3.19 ± 0.081 h
[6]
  total protein half-life in vivo: 6.09 ± 0.37 h
[7]
  total protein half-life in vivo: 10.5 ± 0.85 h
[8]
  total protein half-life in vivo: 4.81 ± 0.17 h
[9]
  total protein half-life in vivo: 8.06 ± 0.66 h
[10]
  total protein half-life in vivo: 5.91 ± 0.13 h
[11]
  total protein half-life in vivo: 11.4 ± 0.29 h

## MTILSLSRFMLAGVLLASFNASAIPGFWQQGYGQGNTEYSVTEASGKTFTINCTGNPDQNGFYQHSVFLTLADDKMVSSHDDDTTITVVMDHQQYIIPSSLGWRNGDNAWFDFISNISEAGQFDVYVNDHKAGTFTADRKNAEKVLSTLGDCSND
[7]
  total protein half-life in vivo: 5.33 h

## MTINFRRNALQLSVAALFSSAFMANAADVPQVKVTVTDKQCEPMTITVNAGKTQFIIQNHSQKALEWEILKGVMVVEERENIAPGFSQKMTANLQPGEYDMTCGLLTNPKGKLIVKGEATADAAQSDALLSLGGAITAYKAYVMAETTQLVTDTKAFTDAIKAGDIEKAKALYAPTRQHYERIEPIAELFSDLDGSIDAREDDYEQKAADPKFTGFHRLEKALFGDNTTKGMDQYAEQLYTDVVDLQKRISELAFPPSKVVGGAAGLIEEVAASKISGEEDRYSHTDLWDFQANVEGSQKIVDLLRPQLQKANPELLAKVDANFKKVDTILAKYRTKDGFETYDKLTDADRNALKGPITALAEDLAQLRGVLGLD [P0AB24]
[1]
  total protein half-life in vivo: 4.39 ± 0.98 h
[12]
  total protein half-life in vivo: 4.5 ± 0.11 h
[2]
  total protein half-life in vivo: 6.43 ± 1.4 h
[3]
  total protein half-life in vivo: 5.84 ± 0.061 h
[4]
  total protein half-life in vivo: 4.58 ± 1.5 h
[5]
  total protein half-life in vivo: 2.967 ± 0.019 h
[6]
  total protein half-life in vivo: 6.25 ± 0.72 h
[7]
  total protein half-life in vivo: 12.8 ± 0.93 h
[8]
  total protein half-life in vivo: 5.73 ± 0.24 h
[9]
  total protein half-life in vivo: 10.3 ± 0.23 h
[10]
  total protein half-life in vivo: 5.01 ± 0.35 h
[11]
  total protein half-life in vivo: 12.2 ± 2.8 h

## MTISELLQYCMAKPGAEQSVHNDWKATQIKVEDVLFAMVKEVENRPAVSLKTSPELAELLRQQHSDVRPSRHLNKAHWSTVYLDGSLPDSQIYYLVDASYQQAVNLLPEEKRKLLVQL [P0AF50]
[1]
  total protein half-life in vivo: 6.83 ± 0.78 h
[12]
  total protein half-life in vivo: 5.39 ± 0.71 h
[2]
  total protein half-life in vivo: 5.05 h
[3]
  total protein half-life in vivo: 5.47 ± 0.13 h
[4]
  total protein half-life in vivo: 4.39 h
[5]
  total protein half-life in vivo: > 4 h
[6]
  total protein half-life in vivo: 4.6917 ± 0.0045 h
[7]
  total protein half-life in vivo: 7.14 ± 1.4 h
[8]
  total protein half-life in vivo: 3.752 ± 0.03 h
[9]
  total protein half-life in vivo: 8.4 ± 3 h
[10]
  total protein half-life in vivo: 4.6 ± 1.2 h
[11]
  total protein half-life in vivo: 9.9 ± 0.1 h

## MTITSLDGYRWLKNDIIRGNFQPDEKLRMSLLTSRYALGVGPLREALSQLVAERLVTVVNQKGYRVASMSEQELLDIFDARANMEAMLVSLAIARGGDEWEADVLAKAHLLSKLEACDASEKMLDEWDLRHQAFHTAIVAGCGSHYLLQMRERLFDLAARYRFIWLRRTVLSVEMLEDKHDQHQTLTAAVLARDTARASELMRQHLLTPIPIIQQAMAGN
[1]
  total protein half-life in vivo: 5.31 ± 0.62 h
[12]
  total protein half-life in vivo: 2.81 ± 0.13 h
[2]
  total protein half-life in vivo: 2.106 ± 0.011 h
[3]
  total protein half-life in vivo: 3.54 ± 0.24 h
[4]
  total protein half-life in vivo: 2.18 ± 0.088 h
[5]
  total protein half-life in vivo: 1.96 ± 0.16 h
[6]
  total protein half-life in vivo: 3.69 ± 0.43 h
[7]
  total protein half-life in vivo: 5.04 ± 0.48 h
[8]
  total protein half-life in vivo: 1.99 ± 0.21 h
[9]
  total protein half-life in vivo: 2.52 ± 0.064 h
[10]
  total protein half-life in vivo: 1.56 h
[11]
  total protein half-life in vivo: 3.14 ± 1.1 h

## MTIWVDADACPNVIKEILYRAAERMQMPLVLVANQSLRVPPSRFIRTLRVAAGFDVADNEIVRQCEAGDLVITADIPLAAEAIEKGAAALNPRGERYTPATIRERLTMRDFMDTLRASGIQTGGPDSLSQRDRQAFAAELEKWWLEVQRSRG [P0A8D3]
[1]
  total protein half-life in vivo: 3.56 ± 0.87 h
[12]
  total protein half-life in vivo: 3.08 h
[2]
  total protein half-life in vivo: 3.2 ± 0.18 h
[3]
  total protein half-life in vivo: 3.89 ± 0.53 h
[4]
  total protein half-life in vivo: 3.16 ± 0.032 h
[5]
  total protein half-life in vivo: 2.73 ± 0.094 h
[6]
  total protein half-life in vivo: 4.33 ± 0.21 h
[7]
  total protein half-life in vivo: 8.06 ± 2.6 h
[8]
  total protein half-life in vivo: 3.55 ± 0.43 h
[9]
  total protein half-life in vivo: 4.5 ± 0.6 h
[10]
  total protein half-life in vivo: 5.28 ± 0.43 h
[11]
  total protein half-life in vivo: 9.109 ± 0.034 h

## MTIYFINWVADYELKMIQYLKKKYKIKNITTPKKYNWINKKISKIGMDNAWLGRLFIKHYLNDIKKDDIIIINDSVVNKGINKQILKNINCHKVLLLRNTVGEDFILDNANYFDIIYDFEHRFIGNEKIKAIEQFFPIGMDEIRNYSLSDKNNSQPICFFLGRDKGRLQIINELAERLTTLGCKLDFNVVKDKTSSTTSKYLIEKQISYEENIRRTLNANIIVDITKENQSGWTLRILEALFFNKKLITNNINVFGSEIYSESRFFIIGHDDWDKLEYFINSSVKPMDYDSLYKFSPDKMMSTIVSDFIDK
[1]
  total protein half-life in vivo: 7.07 ± 1.2 h
[2]
  total protein half-life in vivo: 5.4 ± 0.26 h
[4]
  total protein half-life in vivo: 4.651 ± 0.02 h
[5]
  total protein half-life in vivo: 2.87 ± 0.037 h
[6]
  total protein half-life in vivo: 4.87 ± 0.59 h
[7]
  total protein half-life in vivo: 9.41 ± 2.8 h
[8]
  total protein half-life in vivo: 5.54 ± 0.49 h
[9]
  total protein half-life in vivo: 10.8 ± 2.5 h
[10]
  total protein half-life in vivo: 4.59 ± 0.58 h
[11]
  total protein half-life in vivo: 10.1 ± 1 h

## MTKQVKIYHNPRCSKSRETLNLLKENGVEPEVVLYLETPADAATLRDLLKILGMNSARELMRQKEDLYKELNLADSSLSEEALIQAMVDNPKLMERPIVVANGKARIGRPPEQVLEIVG
[12]
  total protein half-life in vivo: 5.8 h
[2]
  total protein half-life in vivo: 3.65 ± 0.025 h
[3]
  total protein half-life in vivo: 4.45 ± 0.96 h
[5]
  total protein half-life in vivo: 3.47 ± 0.39 h
[6]
  total protein half-life in vivo: 5.12 ± 0.37 h
[7]
  total protein half-life in vivo: 7.332 ± 0.073 h
[8]
  total protein half-life in vivo: 2.58 ± 0.029 h
[9]
  total protein half-life in vivo: 4.7 ± 1.2 h
[10]
  total protein half-life in vivo: 3.87 ± 0.41 h
[11]
  total protein half-life in vivo: 8.07 ± 0.2 h

## MTKTVSTSKKPRKQHSPEFRSEALKLAERIGVTAAARELSLYESQLYNWRSKQQNQQTSSERELEMSTEIARLKRQLAERDEELAILQKAATYFAKRLK [P0CF66]
[7]
  total protein half-life in vivo: 3.53 h
[11]
  total protein half-life in vivo: 5.25 ± 0.29 h
